Square brackets hold non-standard residues; d marks the D form. Peptide text beside a SMILES is read from it. * marks the point of attachment. Phe(4-Cl) = N[C@@H](Cc1ccc(Cl)cc1)C(=O)O; Lys(Me2) = CN(C)CCCC[C@H](N)C(=O)O; Bz = O=C(c1ccccc1)*
What was measured:
[1] = target: T1, NPSR (Homo sapiens, UniProt Q6W5P4); settings: Bernier et al. 2006; cited from earlier work
T1 sequence (Q6W5P4 1-371): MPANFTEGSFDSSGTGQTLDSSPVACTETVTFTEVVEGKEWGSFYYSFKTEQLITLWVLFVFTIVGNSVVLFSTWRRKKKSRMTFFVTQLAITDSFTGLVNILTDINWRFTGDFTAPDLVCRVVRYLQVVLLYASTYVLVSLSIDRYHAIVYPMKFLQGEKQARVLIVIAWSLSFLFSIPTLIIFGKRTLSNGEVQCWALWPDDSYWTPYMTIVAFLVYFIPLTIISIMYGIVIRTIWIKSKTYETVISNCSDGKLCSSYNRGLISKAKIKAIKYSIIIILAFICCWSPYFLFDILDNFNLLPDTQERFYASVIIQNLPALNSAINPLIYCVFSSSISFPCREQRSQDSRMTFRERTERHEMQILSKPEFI

[2] = target: T2, NPSR-C-Alt (Homo sapiens, UniProt Q6W5P4); settings: functional assay; cited from earlier work
T2 sequence (Q6W5P4 1-377 isoform Q6W5P4-4): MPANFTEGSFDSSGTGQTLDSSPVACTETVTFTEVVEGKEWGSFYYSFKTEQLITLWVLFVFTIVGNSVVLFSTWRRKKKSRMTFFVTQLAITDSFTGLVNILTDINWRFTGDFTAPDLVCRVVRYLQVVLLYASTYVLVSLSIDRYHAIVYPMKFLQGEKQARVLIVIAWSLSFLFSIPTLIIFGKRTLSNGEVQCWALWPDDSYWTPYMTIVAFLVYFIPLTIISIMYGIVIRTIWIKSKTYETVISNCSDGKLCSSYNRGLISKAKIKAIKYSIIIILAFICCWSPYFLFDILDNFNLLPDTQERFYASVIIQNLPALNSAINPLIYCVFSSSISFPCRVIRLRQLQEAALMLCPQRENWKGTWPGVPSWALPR

[3] = NPS administration; cited from earlier work
[4] = tested on: C57BL/6 mice; assay: Locomotor activity (horizontal, vertical, stereotypic) after i.c.v. injection; type: in vivo
Procedure: Male C57BL/6 mice (National Cancer Institute, Bethesda, Md., or Charles River Laboratories, Wilmington, Mass.), age 8-12 weeks, were group-housed (4 animals per cage) under controlled conditions (temperature 21 f 2° C.; relative humidity 50-60%; 12-hour light-dark cycle, lights on 6:00 AM) with free access to food and water. For intracerebroventricular (i.c.v.) drug injections, mice were briefly anesthetized with isofluorane. NPS was dissolved in phosphate-buffered saline (PBS, pH 7.4) containing 0.1% bovine serum albumin and injected i.c.v. (total volume: 2 μl) as described before (Xu et al., 2004). NPSR antagonist compounds were dissolved in PBS containing 10% Cremophor EL (Sigma) and 100 μl were injected intraperitoneally (i.p.).
Locomotion of mice was monitored in an automated activity system equipped with infrared sensors for both horizontal and vertical activity measurements (Versamax, Accuscan Inc., Columbus, Ohio). Male C57BL/6 mice were allowed to habituate to the recording chamber for 1 h. Vehicle or NPSR antagonist compound (in PBS, 10% cremophor EL) were injected i.p. 10 minutes before central administration of either NPS (1 nmole in 2 μl PBS, 0.1% BSA) or vehicle (PBS, 0.1% BSA). […] Horizontal activity represents infrared beam breaks in the X and Y dimension, while vertical activity was recorded by infrared sensors located 8 cm above the chamber floor (Z dimension). […]

Molecule	effect of truncation on NPSR activation [1]	other results
peptide 1-6: NPS with the C-terminal 14 residues removed (SFRNGV; Neuropeptide S; UniProt P0C0P6 70-75, looked up, fragment)	limited effect on the potency	
SFRNGVGTGMKKTSFQRAKS [hNPS, 20 residue peptide, endogenous ligand of the neuropeptide S receptor]		potency at NPSR-C-Alt versus the 107I variant [2]: 30 fold lower; performance in novel recognitions assays [3]: dose-dependently improved performance
peptide 3-20: NPS with the first two NH2-terminal residues removed (RNGVGTGMKKTSFQRAKS; Neuropeptide S; UniProt P0C0P6 72-89, looked up, fragment)	largely inactive	
peptide 4-20: NPS with the first three NH2-terminal residues removed (NGVGTGMKKTSFQRAKS; Neuropeptide S; UniProt P0C0P6 73-89, looked up, fragment)	largely inactive	
CN(C)CCCC[C@H](NC(=O)[C@H](Cc1ccc(Cl)cc1)NC(=O)c1ccccc1)C(=O)N[C@@H](CC(N)=O)C(N)=O [Example R06039-398] (Bz-[Phe(4-Cl)]-[Lys(Me2)]-Asn-NH2)		cumulative activities (horizontal, vertical, stereotypic) measured ([4]; icv administration, male C57BL/6 mice, 90 minutes recording): increasing with dose
peptide 2-20: NPS with Ser-1 removed (FRNGVGTGMKKTSFQRAKS; Neuropeptide S; UniProt P0C0P6 71-89, looked up, fragment)	detrimental to function	
O=C(NCCN1CCCCC1)N1CCN2C(=O)OC(c3ccccc3)(c3ccccc3)C2C1 (centres unmarked) [RTI-11817-163]		effect on R06039-398 mediated increases in horizontal and vertical activity ([4]; antagonist added to icv R06039-398, mice): reverses
